Consider 5 substances from publication PMC12723161.

Test [1] has as its target Chlamydomonas reinhardtii animal-like cryptochrome (CraCRY), wild type (Chlamydomonas reinhardtii). Description: SEC; dimer peak collected from SEC, kept in the dark, second round of SEC. A general note: SEC sorts molecules by how far they enter the pores of the column.
Test [2] shares this target. Briefly: SEC; concentration series, blue light 4 min; HEPES pH 7.4, 150 mM NaCl; Superdex 200 Increase 10/300, room temperature, in darkness; dimer fraction from peak areas.
In test [3] the target is GST-fused ROC15 (GARP), the active domain of Rhythm Of Clock 15. Briefly: GST pull-down, SDS-PAGE band intensity ratio. Conditions: absence of reducing agents, read off a plot.
Test [4] concerns the target CraCRY Y373E (Chlamydomonas reinhardtii). Briefly: SEC; time-lapse dimerization under blue light (450 nm, 100 W/m^2); 6 mg/mL in HEPES pH 7.4, 150 mM NaCl; Superdex 200 Increase 10/300, room temperature, in darkness; dimer fraction from peak areas.
Test [5] concerns the target CraCRY Y373R (Chlamydomonas reinhardtii). The description is as above.
The mark [6] stands for this setting: lit (blue light), parent: est. 0.15.

In the case of “Chlamydomonas reinhardtii animal-like cryptochrome (CraCRY), wild type (natural protein)”, the stoichiometry N in test [1] was 2. In test [2], the dimer fraction (percent of elution peak area) came to 20%.
As to “Chlamydomonas reinhardtii animal-like cryptochrome (CraCRY), wild type Y373W”, the response in test [3] (dark, parent: est. 0.03) was 0.045; in test [3] (setting [6]), 0.85.
As for “Chlamydomonas reinhardtii animal-like cryptochrome (CraCRY), wild type Y373W; N395C”, the response amounted to 0.05 in test [3] (dark, parent: est. 0.03) and 0.58 in test [3] (setting [6]).
In the case of CraCRY Y373E (natural protein), the dimer fraction (percent of elution peak area) in test [4] was found to be 50%.
With CraCRY Y373R (natural protein), the dimer fraction (percent of elution peak area) in test [5] worked out at 50%.

A word on the stoichiometry N: it is a count of units in the complex or per binding partner.
